One molecule from patent US20030219718, “Inhibitors of the S100-p53 protein-protein interaction and method of inhibiting cancer employing the same” (UNIVERSITY OF MARYLAND, BALTIMORE, published 2003) can be followed below.

This data set concerns the target p53 (UniProt P04637 P04637:1-393). In words: EMSA; supershifted by p53 antibody; five times more protein and DNA needed than for GADD45; salmon sperm DNA 1.0 µg. Conditions: tags: baculovirus expressed, Protein Sciences Inc; chain copies: 4; label: T4 polynucleotide kinase end label.

p53, sequence (P04637 whole entry, one chain of several): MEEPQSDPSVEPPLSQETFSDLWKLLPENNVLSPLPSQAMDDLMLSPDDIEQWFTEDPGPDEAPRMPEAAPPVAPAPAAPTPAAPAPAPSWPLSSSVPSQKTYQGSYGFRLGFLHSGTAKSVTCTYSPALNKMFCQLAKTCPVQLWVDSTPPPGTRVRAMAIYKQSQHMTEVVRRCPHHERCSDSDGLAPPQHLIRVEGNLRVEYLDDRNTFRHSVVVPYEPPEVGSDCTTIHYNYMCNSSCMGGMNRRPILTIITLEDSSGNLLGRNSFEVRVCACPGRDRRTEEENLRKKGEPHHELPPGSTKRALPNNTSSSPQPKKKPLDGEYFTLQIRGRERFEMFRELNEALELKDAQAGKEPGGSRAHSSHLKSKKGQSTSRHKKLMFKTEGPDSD
Method: Accordingly, mobility shift assays were performed with purified p53 to determine if these sequences in the promoter of S100B were bona fide p53 binding sites, using the GADD45 sequence as a positive control. […] The baculovirus expressed p53 was obtained from Protein Sciences Inc. (Baltimore, Md.). Baculovirus expressed p53 was used (0.6 and 3.0 μg) for binding to the GADD45 and the S100B oligonucleotides respectively.

B1: S100B promoter p53 site (20/20 match, nt 1705-1735) (dsDNA)
DNA 1: GCCTGGGCAAGCTCTGTGCTTCACAGAGCAAGCCTGTGT
DNA 2: ACACAGGCTTGCTCTGTGAAGCACAGAGCTTGCCCAGGC
B1: the binding result is given as “binds”.
